Measurements published in article PMC11457862.

Tests used:
[1] = target: biotinylated human IL-2Rα ectodomain (amino acids 1-217) (human); assay: BLI; biotinylated human IL-2, IL-2Rα or IL-2Rβ on streptavidin tips (Octet Red96); soluble analyte in PBSA (PBS pH 7.2, 0.1% BSA), 300 s association; kinetic fit, 1:1 binding model; IL-2/602 Cx 2:1 by the legend (Supplemental Figure 2, Supplemental Table 1)
[2] = target: biotinylated human IL-2 (amino acids 1-133, C-terminal biotin acceptor peptide) (human) (UniProt P60568); assay: as above
[3] = target: T1, biotinylated human IL-2Rβ ectodomain (amino acids 1-214) (human) (UniProt P14784); assay: as above
T1 sequence (chain, biotin on the biotin acceptor peptide (BirA ligase)): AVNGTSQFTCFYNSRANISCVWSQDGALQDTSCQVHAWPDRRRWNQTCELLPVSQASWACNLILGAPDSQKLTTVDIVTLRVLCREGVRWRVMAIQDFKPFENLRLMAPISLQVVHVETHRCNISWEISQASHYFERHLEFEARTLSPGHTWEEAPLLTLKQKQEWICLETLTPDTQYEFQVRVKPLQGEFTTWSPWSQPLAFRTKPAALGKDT

[4] = target: biotinylated human IL-2 (amino acids 1-133, C-terminal biotin acceptor peptide) (human) (UniProt P60568); assay: BLI; same set-up as a3; equilibrium titration, first-order fit (Supplemental Figure 4A-C, Supplemental Table 4)
[5] = target: T1, biotinylated human IL-2Rβ ectodomain (amino acids 1-214) (human); assay: as above
[6] = target: biotinylated human IL-2 (amino acids 1-133, C-terminal biotin acceptor peptide) (human) (UniProt P60568); assay: BLI; same set-up as a5; equilibrium titration, first-order fit (Supplemental Figure 6C,D, Supplemental Table 5)
[7] = target: biotinylated human IL-2 (amino acids 1-133, C-terminal biotin acceptor peptide) (human) (UniProt P60568); assay: BLI; same set-up as a1; equilibrium titration of the response at the end of the association phase, first-order fit (Figures 2 and 3, Supplemental Table 1)
[8] = target: T1, biotinylated human IL-2Rβ ectodomain (amino acids 1-214) (human); assay: as above
[9] = target: biotinylated human IL-2 (amino acids 1-133, C-terminal biotin acceptor peptide) (human) (UniProt P60568); assay: BLI; biotinylated human IL-2 or IL-2Rβ on streptavidin tips; engineered 602 IC variants and controls in PBSA; kinetic fit, 1:1 binding model (Supplemental Figure 5, Supplemental Table 4)
[10] = target: T1, biotinylated human IL-2Rβ ectodomain (amino acids 1-214) (human); assay: as above
[11] = target: biotinylated human IL-2Rα ectodomain (amino acids 1-217) (human); assay: BLI; same set-up as a1; equilibrium titration of the response at the end of the association phase, first-order fit (Figures 2 and 3, Supplemental Table 1)
[12] = target: biotinylated mouse IL-2Rβ (mouse) (UniProt P16297); assay: BLI; biotinylated mouse IL-2Rα or IL-2Rβ on streptavidin tips; ICs or 602 Ab in PBSA; kinetic fit, 1:1 binding model (Supplemental Figure 6E,F, Supplemental Table 1)
[13] = target: biotinylated mouse IL-2Rα (mouse) (UniProt P01590); assay: as above
[14] = target: biotinylated mouse IL-2Rβ (mouse) (UniProt P16297); assay: BLI; same set-up as a7; equilibrium titration, first-order fit (Supplemental Figure 6G,H, Supplemental Table 1)

Chain of IL-2/602 complex (human IL-2 mixed with 602 antibody) (VH): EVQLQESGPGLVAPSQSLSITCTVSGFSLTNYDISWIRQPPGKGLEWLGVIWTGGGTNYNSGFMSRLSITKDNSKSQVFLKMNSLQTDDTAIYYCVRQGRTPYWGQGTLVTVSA
Chain of IL-2/602 complex (human IL-2 mixed with 602 antibody) (VL): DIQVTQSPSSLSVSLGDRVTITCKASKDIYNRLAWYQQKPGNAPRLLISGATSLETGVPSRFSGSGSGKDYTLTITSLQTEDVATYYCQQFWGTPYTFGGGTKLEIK
Chain of biotinylated mouse IL-2Rβ (mouse) (P16297 27-539): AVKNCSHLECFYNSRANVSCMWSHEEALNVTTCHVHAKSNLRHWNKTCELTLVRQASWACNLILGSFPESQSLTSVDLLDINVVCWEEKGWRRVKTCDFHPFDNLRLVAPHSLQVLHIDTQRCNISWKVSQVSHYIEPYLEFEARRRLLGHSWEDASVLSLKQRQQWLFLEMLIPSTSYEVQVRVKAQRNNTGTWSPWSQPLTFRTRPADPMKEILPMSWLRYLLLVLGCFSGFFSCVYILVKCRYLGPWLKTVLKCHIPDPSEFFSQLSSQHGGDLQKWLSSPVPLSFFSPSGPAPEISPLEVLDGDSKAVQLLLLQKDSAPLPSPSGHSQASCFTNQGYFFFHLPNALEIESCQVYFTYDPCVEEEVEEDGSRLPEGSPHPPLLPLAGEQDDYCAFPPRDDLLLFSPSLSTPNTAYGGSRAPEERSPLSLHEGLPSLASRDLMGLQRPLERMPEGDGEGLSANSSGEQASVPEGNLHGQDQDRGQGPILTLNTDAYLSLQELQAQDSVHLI
Chain of biotinylated mouse IL-2Rα (mouse) (P01590 22-268): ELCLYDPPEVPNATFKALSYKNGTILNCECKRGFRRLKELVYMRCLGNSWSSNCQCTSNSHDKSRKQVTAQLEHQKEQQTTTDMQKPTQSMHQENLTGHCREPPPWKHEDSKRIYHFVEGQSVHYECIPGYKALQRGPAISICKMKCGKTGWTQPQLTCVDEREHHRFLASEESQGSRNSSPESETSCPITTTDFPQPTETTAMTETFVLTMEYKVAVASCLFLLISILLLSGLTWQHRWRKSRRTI

| Substance | Kd [1] [nM] | Kd [2] [nM] | Kd [3] [nM] | Kd [4] [nM] | Kd [5] [nM] | Kd [6] [nM] | Kd [7] [nM] | Kd [8] [nM] | Kd [9] [nM] | Kd [10] [nM] | Kd [11] [nM] | Kd [12] [nM] | Kd [13] [nM] | Kd [14] [nM] |
| --- | --- | --- | --- | --- | --- | --- | --- | --- | --- | --- | --- | --- | --- | --- |
| Control immunocytokine (IL-2-(G4S)7-light chain of anti-fluorescein antibody 4-4-20 + 4-4-20 heavy chain) (from UniProt P60568 21-153) |  |  | 0.18 |  |  | > 2000 | > 2000 |  |  |  | 5.2 | > 10000 | 4.74 | > 10000 |
| 602 immunocytokine with 35-amino-acid linker (IL-2-(G4S)7-602 light chain + 602 heavy chain) (from UniProt P60568 21-153) |  | 143 | 4.22 | > 2000 | 5.4 | > 2000 | > 2000 | 5 |  | 0.26 | > 2000 |  |  |  |
| human IL-2 (amino acids 1-133), soluble (from UniProt P60568 21-153) (ligand) | 3.2 |  |  |  |  |  |  |  |  |  | 7.3 |  |  |  |

Other lines, results leading:

| Kd [1] [nM] | Kd [2] [nM] | Kd [3] [nM] | Kd [4] [nM] | Kd [5] [nM] | Kd [6] [nM] | Kd [7] [nM] | Kd [8] [nM] | Kd [9] [nM] | Kd [10] [nM] | Kd [11] [nM] | Kd [12] [nM] | Kd [13] [nM] | Kd [14] [nM] | Substance |
| --- | --- | --- | --- | --- | --- | --- | --- | --- | --- | --- | --- | --- | --- | --- |
| 0.55 | 10.6 | 3.89 | 74 | 6 | 168 | 103 | 5.2 | 13.3 | 0.3 |  |  |  |  | IL-2/602 complex (human IL-2 mixed with 602 antibody) (from UniProt P60568 21-153) |
|  | 88.3 |  |  |  |  | 905 | 8.4 |  |  | > 2000 |  |  |  | 602 immunocytokine with 15-amino-acid linker (IL-2-(G4S)3-602 light chain + 602 heavy chain) (from UniProt P60568 21-153) |
|  | 76.9 | 3.66 |  |  |  | 941 |  |  |  | > 2000 |  |  |  | 602 immunocytokine with 25-amino-acid linker (IL-2-(G4S)5-602 light chain + 602 heavy chain) (from UniProt P60568 21-153) |
